Test results taken from the RNAGym collection of RNA variant scans (doi:10.1073/pnas.2313332121).

B1: TPR t1 (parent)
chain: GACCAAUCUGCCCUCAGAGCUCGAGAACAUCUUCGGAUGCAGAGGAGGCAGGCUUCGGUGGCGCGAUAGCGCCAACGUCCUCAACCUCCAAUGCAUCCCACCACAUGAUGAUGCCUGAAGAGCCUUGGUUUUUUG

Variants of: B1
Experiment: polymerase ribozyme fitness, log enrichment relative to wild type (log ratio); higher = more active; in vitro selection for triplet polymerase activity
Method in brief: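 Mutant libraries were PCR-built and transcribed for each subunit of a heterodimeric triplet polymerase ribozyme and selected for one round in triplicate at −7 °C, frozen, before gel excision of extended constructs and streptavidin-bead capture. Input and output libraries were Illumina-sequenced, keeping genotypes with ≥10 input reads and ≥1 read per output. Fitness is a logarithmic ratio of genotype to wild-type enrichment, in base 2, using inverse-variance-weighted replicate averages.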

**Q.** Which “polymerase ribozyme fitness (log ratio)” value does the source give for C28U C115U here?
**A.** -3.6

**Q.** Which “polymerase ribozyme fitness (log ratio)” value does the source give for A29G G58U U59A here?
**A.** -1.29

**Q.** For C31U G71U G120U, which “polymerase ribozyme fitness (log ratio)” value is on record?
**A.** -4.2

**Q.** With C28G G93A as the variant, how does the “polymerase ribozyme fitness (log ratio)” value read?
**A.** -3.77

**Q.** With C28A A43U as the variant, how does the “polymerase ribozyme fitness (log ratio)” value read?
**A.** -5.18

**Q.** For A29G G51U U55A G57U, which “polymerase ribozyme fitness (log ratio)” value is on record?
**A.** -3.55

**Q.** With A27U G61U C102U U109G as the variant, how does the “polymerase ribozyme fitness (log ratio)” value read?
**A.** -5.55

**Q.** Which “polymerase ribozyme fitness (log ratio)” value does the source give for C31U U78C here?
**A.** -5.28

**Q.** For C28G C56A C73G U106C, which “polymerase ribozyme fitness (log ratio)” value is on record?
**A.** -4.85

**Q.** Which “polymerase ribozyme fitness (log ratio)” value does the source give for C28U C80U A90G C124G here?
**A.** -0.852

**Q.** For C28U G71U C82A, which “polymerase ribozyme fitness (log ratio)” value is on record?
**A.** -3.3

**Q.** With C28A C88G G120A as the variant, how does the “polymerase ribozyme fitness (log ratio)” value read?
**A.** -3.89

**Q.** For A27U C53G A66G, which “polymerase ribozyme fitness (log ratio)” value is on record?
**A.** -4.36

**Q.** Which “polymerase ribozyme fitness (log ratio)” value does the source give for C28U C31A C85G A119G G120A here?
**A.** -7.42

**Q.** With A29U G61C as the variant, how does the “polymerase ribozyme fitness (log ratio)” value read?
**A.** -2.79

**Q.** With A27U C85A C86A C101G as the variant, how does the “polymerase ribozyme fitness (log ratio)” value read?
**A.** -5.15

**Q.** Which “polymerase ribozyme fitness (log ratio)” value does the source give for C28A G48U C53U G57C G60A U106C here?
**A.** -5.56

**Q.** With U30C A41G as the variant, how does the “polymerase ribozyme fitness (log ratio)” value read?
**A.** -3.33

**Q.** Which “polymerase ribozyme fitness (log ratio)” value does the source give for A29G G63A here?
**A.** -1.9

**Q.** For A27U C53U G77A, which “polymerase ribozyme fitness (log ratio)” value is on record?
**A.** -3.79

**Q.** For C28G C53U G93A, which “polymerase ribozyme fitness (log ratio)” value is on record?
**A.** -5.35

**Q.** With C31U G113A as the variant, how does the “polymerase ribozyme fitness (log ratio)” value read?
**A.** -3.94

**Q.** Which “polymerase ribozyme fitness (log ratio)” value does the source give for A27U G60U G63A U109A C124U here?
**A.** -6.47

**Q.** Which “polymerase ribozyme fitness (log ratio)” value does the source give for A29C G39A A50U G52A U112C here?
**A.** -5.09

**Q.** For A27U C72U A83U G127A, which “polymerase ribozyme fitness (log ratio)” value is on record?
**A.** -4.42

**Q.** For C28U C82A C94A U125G, which “polymerase ribozyme fitness (log ratio)” value is on record?
**A.** -4.37

**Q.** Which “polymerase ribozyme fitness (log ratio)” value does the source give for A27U G60U C82A U125G here?
**A.** -3.48

**Q.** For C28G C34G G42U A46G C56A C104A A111G U131G, which “polymerase ribozyme fitness (log ratio)” value is on record?
**A.** -5.4

**Q.** With A29C C102A U109G as the variant, how does the “polymerase ribozyme fitness (log ratio)” value read?
**A.** -2.1

**Q.** For A29U C72U C102U, which “polymerase ribozyme fitness (log ratio)” value is on record?
**A.** -5.4

**Q.** For C31U G36A G61A U87A U106A, which “polymerase ribozyme fitness (log ratio)” value is on record?
**A.** -2.2

**Q.** With C28A G61U G120A as the variant, how does the “polymerase ribozyme fitness (log ratio)” value read?
**A.** -3.5

**Q.** With C31G C62U C114G G127U as the variant, how does the “polymerase ribozyme fitness (log ratio)” value read?
**A.** -6.54

**Q.** For A29G G47C C53A U59A, which “polymerase ribozyme fitness (log ratio)” value is on record?
**A.** -2.24

**Q.** For A29G C73A C76A, which “polymerase ribozyme fitness (log ratio)” value is on record?
**A.** -3.61

**Q.** With A29C G61U C70U A75G U78G as the variant, how does the “polymerase ribozyme fitness (log ratio)” value read?
**A.** -3.77

**Q.** With C28G C53U U67G C73G C98A C102A A111U C114G as the variant, how does the “polymerase ribozyme fitness (log ratio)” value read?
**A.** -6

**Q.** Which “polymerase ribozyme fitness (log ratio)” value does the source give for U30A C73A here?
**A.** -5.19

**Q.** With A27U G44U C101G A111C as the variant, how does the “polymerase ribozyme fitness (log ratio)” value read?
**A.** -7.22

**Q.** For C28G C73U C97U, which “polymerase ribozyme fitness (log ratio)” value is on record?
**A.** -3.34

**Q.** With A27U G69U as the variant, how does the “polymerase ribozyme fitness (log ratio)” value read?
**A.** -1.45

**Q.** With A27U C76U A95G U130G as the variant, how does the “polymerase ribozyme fitness (log ratio)” value read?
**A.** -4.08

**Q.** Which “polymerase ribozyme fitness (log ratio)” value does the source give for C31U G36U C73U C82A C86G G113U U133A here?
**A.** -6.04

**Q.** Which “polymerase ribozyme fitness (log ratio)” value does the source give for A27U G117U C123G here?
**A.** -4.27

**Q.** For C28U G135U, which “polymerase ribozyme fitness (log ratio)” value is on record?
**A.** -2.44

**Q.** With A27U G60C C82G G120C G128U as the variant, how does the “polymerase ribozyme fitness (log ratio)” value read?
**A.** -4.87

**Q.** For A29G C31G G63A A100U A121C, which “polymerase ribozyme fitness (log ratio)” value is on record?
**A.** -7.06

**Q.** Which “polymerase ribozyme fitness (log ratio)” value does the source give for U30C C70U here?
**A.** -2.92

**Q.** Which “polymerase ribozyme fitness (log ratio)” value does the source give for A29G A95G here?
**A.** -1.84

**Q.** For C28U G39C C56G C104U, which “polymerase ribozyme fitness (log ratio)” value is on record?
**A.** -5.32

**Q.** Which “polymerase ribozyme fitness (log ratio)” value does the source give for A29G A105C here?
**A.** -7.42

**Q.** For C31U G36U G60C C123U, which “polymerase ribozyme fitness (log ratio)” value is on record?
**A.** -5.45

**Q.** For C31G U33A G48U C49U C72G A108U G120U, which “polymerase ribozyme fitness (log ratio)” value is on record?
**A.** -8.14

**Q.** Which “polymerase ribozyme fitness (log ratio)” value does the source give for C28U G39U A111C here?
**A.** -6.59

**Q.** Which “polymerase ribozyme fitness (log ratio)” value does the source give for A29U C49G C73U C76U C94A here?
**A.** -3.55

**Q.** For A29C A41U C64U, which “polymerase ribozyme fitness (log ratio)” value is on record?
**A.** -3.54

**Q.** For A27U G57C C89G G120A U131A, which “polymerase ribozyme fitness (log ratio)” value is on record?
**A.** -4.12

**Q.** For A29U A46C, which “polymerase ribozyme fitness (log ratio)” value is on record?
**A.** -3.27

**Q.** Which “polymerase ribozyme fitness (log ratio)” value does the source give for A27U C88A here?
**A.** -4.4

**Q.** Which “polymerase ribozyme fitness (log ratio)” value does the source give for C28U C73A here?
**A.** -2.23

**Q.** With A29U C98U as the variant, how does the “polymerase ribozyme fitness (log ratio)” value read?
**A.** -3.59

**Q.** With C28G C62G C98U C124U as the variant, how does the “polymerase ribozyme fitness (log ratio)” value read?
**A.** -5.55

**Q.** Which “polymerase ribozyme fitness (log ratio)” value does the source give for A29G C101A A118U here?
**A.** -3.6

**Q.** Which “polymerase ribozyme fitness (log ratio)” value does the source give for C28G G48U here?
**A.** -3.56

**Q.** Which “polymerase ribozyme fitness (log ratio)” value does the source give for U30A U112C here?
**A.** -2.73

**Q.** For A27U C94U U106A G110U, which “polymerase ribozyme fitness (log ratio)” value is on record?
**A.** -2.09

**Q.** With A29U G71A G135C as the variant, how does the “polymerase ribozyme fitness (log ratio)” value read?
**A.** -2.1

**Q.** With C28G U54G C97U U130A U131C as the variant, how does the “polymerase ribozyme fitness (log ratio)” value read?
**A.** -3.57

**Q.** Which “polymerase ribozyme fitness (log ratio)” value does the source give for A29G U32A U55C here?
**A.** -5.1

**Q.** Which “polymerase ribozyme fitness (log ratio)” value does the source give for C31G U109G C114G here?
**A.** -6.93

**Q.** With C31U C82U as the variant, how does the “polymerase ribozyme fitness (log ratio)” value read?
**A.** -5.12

**Q.** For C31U U81A C88G A95U U112A, which “polymerase ribozyme fitness (log ratio)” value is on record?
**A.** -6.66

**Q.** For C28A G93C G110A, which “polymerase ribozyme fitness (log ratio)” value is on record?
**A.** -0.645

**Q.** For C28U C62U G69U, which “polymerase ribozyme fitness (log ratio)” value is on record?
**A.** -1.04

**Q.** For C28U U32A C70U G120C, which “polymerase ribozyme fitness (log ratio)” value is on record?
**A.** -6.64

**Q.** With A29U G93A as the variant, how does the “polymerase ribozyme fitness (log ratio)” value read?
**A.** -2.13

**Q.** For C31A A37G C80G C86U U92C A105U A111U, which “polymerase ribozyme fitness (log ratio)” value is on record?
**A.** -7.03

**Q.** Which “polymerase ribozyme fitness (log ratio)” value does the source give for A29C C40U A41U C124U here?
**A.** -3.03

**Q.** Which “polymerase ribozyme fitness (log ratio)” value does the source give for A29U A46C G48A A84C here?
**A.** -3.31

**Q.** For C28A A119U, which “polymerase ribozyme fitness (log ratio)” value is on record?
**A.** -4.75

**Q.** Which “polymerase ribozyme fitness (log ratio)” value does the source give for U30G U54A U112C here?
**A.** -5.05

**Q.** With C31U G36U G60C C73U C123U as the variant, how does the “polymerase ribozyme fitness (log ratio)” value read?
**A.** -4.81

**Q.** Which “polymerase ribozyme fitness (log ratio)” value does the source give for C31A G57A C73U here?
**A.** -6.14

**Q.** For C31U C88G, which “polymerase ribozyme fitness (log ratio)” value is on record?
**A.** -6.51
